Source: paper PMC5540112 (mAbs, 2017)
Residue numbers refer to the chain shown, from its start.

B1: ACT010, humanized anti-GPVI Fab (VL3b + VH3) (Fab, V domains shown)
VH: QVQLVQSGAEVKKPGASVKVSCKASGYTFTSYNMHWVRQAPGQGLEWMGGIYPGNGDTSYNQKFQGRVTMTRDTSTSTVYMELSSLRSEDTAVYYCARGTVVGDWYFDVWGQGTLVTVSS
VL: DIVMTQTPLSLSVSVGERVTITCKSSQSLENSNGNTYLNWYLQKPGQAPQLLIYRVSNRFSGVPDRFSGSGSGTDFTLTISRVEAEDVGVYYCLQLTHVPWTFGQGTKLEIK
B2: ACT005, humanized anti-GPVI Fab (VL2b + VH2) (Fab, V domains shown)
VH: EVQLVESGGGLVQPGGSLRLSCAASGYTFTSYNMHWVRQAPGKGLEWVGGIYPGNGDTSYNADFKRRFTFSLDTSKSTAYLQMNSLRAEDTAVYYCARGTVVGDWYFDVWGQGTLVTVSS
VL: DIQMTQSPSSLSASVGDRVTITCSASQSLENSNGNTYLNWYQQKPGKAPKLLIYRVSNRFSGVPSRFSGSGSGTDFTLTISSLQPEDFATYYCLQLTHVPWTFGQGTKVEIK
B3: ACT017, humanized anti-GPVI Fab (VL8b + VH3) (Fab, V domains shown)
VH: B1 VH
VL: B2 VL with S24R, A25S, L78F, F88I, K112T
B4: ACT006, humanized anti-GPVI Fab (VL2b + VH3) (Fab, V domains shown)
VH: B1 VH
VL: B2 VL
B5: ACT016, humanized anti-GPVI Fab (VL8b + VH2) (Fab, V domains shown)
VH: B2 VH
VL: B2 VL with S24R, A25S, L78F, F88I, K112T
B6: Fab 9O12, Fab fragment of the mouse monoclonal IgG1,k 9O12 (Fab, V domains shown)
VH: QVQLQESGAELVKPGASVKMSCKASGYTFTSYNMHWVKQTPGQGLEWIGGIYPGNGDTSFNQKFKGKATLTADKSSRTAYMQLSSLTSEDSAVYYCARGTVVGDWYFDVWGAGTTLTVSS
VL: DVLMTQTPLSLPVSLGDQASISCRSSQSLENSNGNTYLNWYLQKPGQSPQLLIYRVSNRFSGVLDRFSGSGSGTDFTLKISRVEAEDLGVYFCLQLTHVPWTFGGGTKLEIK

These binders were tested against T1, Recombinant GPVI-Fc (extracellular domain of human GPVI fused to human IgG1 Fc domain) (Homo sapiens, UniProt Q9HCN6) (assay: ELISA).
T1 sequence (Q9HCN6 21-267): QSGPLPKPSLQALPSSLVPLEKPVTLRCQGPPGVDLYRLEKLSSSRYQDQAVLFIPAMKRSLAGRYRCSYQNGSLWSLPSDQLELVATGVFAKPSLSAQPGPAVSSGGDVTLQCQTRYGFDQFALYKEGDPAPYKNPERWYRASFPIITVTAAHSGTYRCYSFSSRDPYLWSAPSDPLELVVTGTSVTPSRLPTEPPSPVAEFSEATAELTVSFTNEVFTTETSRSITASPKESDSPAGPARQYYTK

| binding result | Binder |
| --- | --- |
| binds | B1 |

These binders were tested against T1, Recombinant GPVI-Fc (extracellular …) (assay: SPR).

| Kd | Binder |
| --- | --- |
| < 25 nM | B2 |
| 4.1 nM | B3 |
| < 8 nM | B4 |
| < 25 nM | B5 |
| 17 nM | B6 |
